For six sequences, Kd results are on record in the Immune Epitope Database (IEDB).

One assay concerns the target HLA-B*46:01. Put plainly: IEDB peptide-MHC binding, purified MHC/direct/fluorescence; filed as Kd, often an IC50 or EC50 that approximates it; ≥ and ≤ were set here for values at or beyond the usual limits of such assays.
A further assay deals with HLA-B*15:01. The assay is described as above.
Assay [1] deals with HLA-B*48:01. The assay is described as above.
Another assay concerns the target HLA-B*27:05. Described as above.
The target in a further assay is HLA-A*29:02. The assay is described as above.
A further assay has as its target HLA-B*58:01. The assay is described as above.
In a further assay the target is HLA-B*18:01. Described as above.
In a further assay the target is HLA-B*08:02. The description is as above.
Another assay deals with HLA-B*08:01. The assay is described as above.
The next assay addresses HLA-B*44:02. Described as above.
The next assay concerns the target HLA-B*57:01. Described as above.
A further assay concerns the target HLA-B*73:01. The description is as above.
For the next assay, the target named is HLA-A*30:01. The description is as above. Particulars: source organism: Salmonella enterica subsp. enterica serovar Typhi.
The next assay deals with HLA-B*40:01. The assay is described as above.
The target in the next assay is HLA-A*26:01. Described as above.
A further assay has as its target HLA-A*11:01. The description is as above.
For the next assay, the target named is HLA-A*02:01. The description is as above.
A further assay addresses HLA-C*06:02. The assay is described as above. The following applies: source organism: Salmonella enterica subsp. enterica serovar Typhi str. CT18.
A further assay deals with HLA-A*01:01. The assay is described as above.
Another assay addresses HLA-A*69:01. Described as above.
For a further assay, the target named is HLA-A*31:01. The description is as above.
In another assay the target is HLA-A*03:01. The assay is described as above.
In a further assay the target is HLA-C*07:02. The assay is described as above. The following applies: source organism: Salmonella enterica subsp. enterica serovar Typhi str. CT18.
A further assay deals with HLA-B*83:01. Description: IEDB peptide-MHC binding, purified MHC/competitive/fluorescence; filed as Kd, often an IC50 or EC50 that approximates it; ≥ and ≤ were set here for values at or beyond the usual limits of such assays. Particulars: source organism: Mycobacterium tuberculosis variant bovis BCG str. Pasteur 1173P2.
The target in another assay is HLA-B*15:42. The description is as above. The following applies: source organism: Mycobacterium tuberculosis variant bovis BCG str. Pasteur 1173P2.
Another assay addresses HLA-A*03:19. The description is as above. The following applies: source organism: Mycobacterium tuberculosis variant bovis BCG str. Pasteur 1173P2.
The target of a further assay is HLA-B*45:06. Described as above. The following applies: source organism: Mycobacterium tuberculosis variant bovis BCG str. Pasteur 1173P2.
A further assay concerns the target HLA-B*39:01. Put plainly: IEDB peptide-MHC binding, purified MHC/direct/fluorescence; filed as Kd, often an IC50 or EC50 that approximates it; ≥ and ≤ were set here for values at or beyond the usual limits of such assays. The following applies: source organism: Marburg virus - Musoke, Kenya, 1980.
A further assay addresses HLA-A*68:02. The description is as above. Particulars: source organism: Marburg virus - Musoke, Kenya, 1980.
The target of a further assay is HLA-B*15:17. The assay is described as above. The following applies: source organism: Marburg virus - Musoke, Kenya, 1980.
The target in another assay is HLA-B*07:02. Described as above.
The target in a further assay is HLA-B*15:09. The description is as above. The following applies: source organism: Ravn virus - Ravn, Kenya, 1987.
Assay [2] has as its target HLA-B*48:01. Description: IEDB peptide-MHC binding, purified MHC/competitive/fluorescence; filed as Kd, often an IC50 or EC50 that approximates it; ≥ and ≤ were set here for values at or beyond the usual limits of such assays. Particulars: source organism: Orthomarburgvirus marburgense.
For a further assay, the target named is HLA-A*26:02. The assay is described as above. The following applies: source organism: Orthomarburgvirus marburgense.
In a further assay the target is HLA-B*08:03. Put plainly: IEDB peptide-MHC binding, purified MHC/direct/fluorescence; filed as Kd, often an IC50 or EC50 that approximates it; ≥ and ≤ were set here for values at or beyond the usual limits of such assays. Particulars: source organism: Vibrio cholerae.
Where [3] appears, read: source organism: Mammarenavirus lassaense.
The mark [4] stands for this setting: source organism: Mycobacterium tuberculosis.
Setting [5] is: source organism: Salmonella enterica.
[6] abbreviates: source organism: Salmonella enterica subsp. enterica serovar Typhi.
Setting [7] is: source organism: Marburg virus - Musoke, Kenya, 1980.
[8] abbreviates: source organism: Ravn virus - Ravn, Kenya, 1987.
[9] abbreviates: source organism: Vibrio cholerae.

With QLDQRRALL, the Kd with HLA-B*46:01 (setting [3]), with HLA-B*15:01 (setting [3]), with HLA-B*48:01 [1] (setting [3]), with HLA-B*27:05 (setting [3]), in the assay with HLA-A*29:02 (setting [3]) and in the assay with HLA-B*58:01 (setting [3]) was not below 20 µM throughout. The Kd (usually the constant that tells how readily two partners part at equilibrium) in the assay with HLA-B*18:01 (setting [3]) is not below 20 µM; with HLA-B*08:02 (setting [3]), 15.1 µM; in the assay with HLA-B*08:01 (setting [3]), 0.773 µM; with HLA-B*44:02 (setting [3]), not below 20 µM; with HLA-B*57:01 (setting [3]), not below 20 µM.
Regarding QRIAVPVTK, the Kd was not below 20 µM in the assay with HLA-B*48:01 [1] (setting [4]), 0.095 µM with HLA-B*27:05 (setting [4]) and not below 20 µM with HLA-B*73:01 (source organism: Mycobacterium tuberculosis str. Haarlem).
Regarding RRRQWASCM, the dissociation constant (Kd) with HLA-A*30:01 is not below 20 µM; with HLA-B*15:01 (setting [5]), not below 20 µM; in the assay with HLA-B*40:01 (setting [5]) it was not below 20 µM; in the assay with HLA-A*26:01 (setting [5]) it was not below 20 µM; with HLA-B*27:05 (setting [6]), 0.0774 µM; with HLA-A*11:01 (setting [5]), not below 20 µM. Further, the Kd is not below 20 µM with HLA-A*02:01 (setting [5]); not below 20 µM with HLA-B*58:01 (setting [5]); 0.024 µM in the assay with HLA-C*06:02; not below 20 µM with HLA-B*73:01 (source organism: Salmonella enterica subsp. enterica serovar Typhimurium); 13.9 µM with HLA-B*08:01 (setting [6]); not below 20 µM with HLA-A*01:01 (setting [5]). Moreover, the Kd with HLA-A*69:01 (setting [5]) is not below 20 µM; with HLA-A*31:01 (setting [5]) it was not below 20 µM; with HLA-B*44:02 (setting [5]) it was not below 20 µM; in the assay with HLA-A*03:01 (setting [5]), not below 20 µM; with HLA-C*07:02, 0.045 µM.
As for RWRWFRAAM, the equilibrium dissociation constant (Kd) was not below 5 µM in the assay with HLA-B*83:01, not below 5 µM in the assay with HLA-B*15:42, 0.814 µM with HLA-A*03:19 and not below 5 µM with HLA-B*45:06.
Take THYSGNIVH: the Kd with HLA-B*39:01 is 0.0274 µM; with HLA-B*46:01 (setting [7]), not below 20 µM; with HLA-A*68:02 it was not below 20 µM; with HLA-B*15:01 (setting [7]), not below 20 µM; with HLA-B*40:01 (setting [7]) it was not below 20 µM; with HLA-A*26:01 (setting [8]), not below 20 µM. In addition, the Kd in the assay with HLA-B*27:05 (setting [7]), in the assay with HLA-A*02:01 (setting [7]), with HLA-B*58:01 (setting [7]), with HLA-B*18:01 (setting [7]), in the assay with HLA-B*15:17 and in the assay with HLA-B*08:02 (setting [8]) was not below 20 µM throughout. Besides, the equilibrium dissociation constant (Kd) in the assay with HLA-B*07:02 (setting [7]) is not below 20 µM; with HLA-B*08:01 (setting [8]) it was not below 20 µM; with HLA-A*01:01 (setting [7]), not below 20 µM; in the assay with HLA-A*69:01 (setting [7]) it was not below 20 µM; with HLA-B*57:01 (setting [7]), not below 20 µM; with HLA-B*15:09, 0.046 µM. Further, the Kd with HLA-B*48:01 [2] and with HLA-A*26:02 was not below 20 µM in each case.
As to VLKLRFWLI, the Kd with HLA-B*46:01 (setting [9]), with HLA-B*15:01 (setting [9]), with HLA-B*40:01 (setting [9]), in the assay with HLA-B*48:01 [1] (setting [9]), with HLA-B*27:05 (setting [9]) and with HLA-A*11:01 (setting [9]) was not below 20 µM each time. The Kd with HLA-A*29:02 (setting [9]), with HLA-A*02:01 (setting [9]), with HLA-B*58:01 (setting [9]), with HLA-B*18:01 (setting [9]), with HLA-B*08:02 (setting [9]) and in the assay with HLA-B*07:02 (setting [9]) was not below 20 µM throughout. In addition, the Kd is 0.034 µM in the assay with HLA-B*08:01 (setting [9]); not below 20 µM in the assay with HLA-A*01:01 (setting [9]); not below 20 µM with HLA-A*69:01 (setting [9]); 0.188 µM with HLA-B*08:03; not below 20 µM in the assay with HLA-A*31:01 (setting [9]); not below 20 µM in the assay with HLA-B*44:02 (setting [9]). The Kd with HLA-B*57:01 (setting [9]) and with HLA-A*03:01 (setting [9]) was not below 20 µM in each case.
